Experimental data taken from US20120202747A1 (TORU MIYAZAKI, published 2012).

B1: recombinant mouse AIM protein (other)
chain: ESPTKVQLVGGAHRCEGRVEVEHNGQWGTVCDDGWDRRDVAVVCRELNCGAVIQTPRGASYQPPASEQRVLIQGVDCNGTEDTLAQCELNYYVFDCSHEEDAGAQCENPDSDLLFIPEDVRLVDGPGHCQGRVEVLHQSQWSTVCKAGWNLQVSKVVCRQLGCGRALLTYGSCNKNTQGKGPIWMGKMSCSGQEANLRSCLLSRLENNCTHGEDTWMECEDPFELKLVGGDTPCSGRLEVLHKGSWGSVCDDNWGEKEDQVVCKQLGCGKSLHPSPKTRKIYGPGAGRIWLDDVNCSGKEQSLEFCRHRLWGYHDCTHKEDVEVICTDFDV
notes: no cleavage site is stated; also called Mouse rAIM; rAIM
B2: mouse AIM (apoptosis inhibitor of macrophage) fused with an HA-tag (other)
chain: ESPTKVQLVGGAHRCEGRVEVEHNGQWGTVCDDGWDRRDVAVVCRELNCGAVIQTPRGASYQPPASEQRVLIQGVDCNGTEDTLAQCELNYYVFDCSHEEDAGAQCENPDSDLLFIPEDVRLVDGPGHCQGRVEVLHQSQWSTVCKAGWNLQVSKVVCRQLGCGRALLTYGSCNKNTQGKGPIWMGKMSCSGQEANLRSCLLSRLENNCTHGEDTWMECEDPFELKLVGGDTPCSGRLEVLHKGSWGSVCDDNWGEKEDQVVCKQLGCGKSLHPSPKTRKIYGPGAGRIWLDDVNCSGKEQSLEFCRHRLWGYHDCTHKEDVEVICTDFDV
notes: also called HA-AIM; AIM tagged with HA; not shown: HA tag

What was measured:
[1] = biological target: T1, mouse CD36 fused with a FLAG-tag at its C terminus, overexpressed on HEK293 cells (mouse, UniProt Q08857 1-472); experiment: confocal microscopy of HEK293 cells overexpressing mouse CD36-FLAG, cultured with mouse AIM for 3 hours
T1 construct: whole, on cells; also called CD36-FLAG; not shown: C-terminal FLAG tag
Procedure: CD36 is a twice-transmembrane-type molecule, is expressed on adipocytes and macrophages, and is involved in intracellular internalization of many molecules including fatty acids, LDL, and the like. Thus, HEK293 cells in which mouse CD36 fused with a FLAG-tag at its C terminus was overexpressed were produced, and the cells were cultured with mouse AIM for 3 hours. Subsequently, the cells were collected, stained using an anti-AIM antibody and an anti-CD36 antibody, and observed under a confocal microscope.

[2] = biological target: T2, endogenous FAS (fatty acid synthase) in mouse adipocytes (mouse, UniProt P19096 1-2504); experiment: precipitation of endocytosed HA-tagged rAIM from lysates of mouse adipose tissue with an anti-HA antibody, Western blot for FAS
T2 construct: also called cytosolic FAS
Procedure: Further, the endocytosed rAIM was precipitated using lysates derived from those adipose tissues to examine whether endogenous FAS was co-precipitated or not. That is, the presence of FAS in the precipitate was analyzed by Western blotting using HA-tagged rAIM and an anti-HA antibody.

T1 sequence (Q08857 whole entry, the tested form may be a part): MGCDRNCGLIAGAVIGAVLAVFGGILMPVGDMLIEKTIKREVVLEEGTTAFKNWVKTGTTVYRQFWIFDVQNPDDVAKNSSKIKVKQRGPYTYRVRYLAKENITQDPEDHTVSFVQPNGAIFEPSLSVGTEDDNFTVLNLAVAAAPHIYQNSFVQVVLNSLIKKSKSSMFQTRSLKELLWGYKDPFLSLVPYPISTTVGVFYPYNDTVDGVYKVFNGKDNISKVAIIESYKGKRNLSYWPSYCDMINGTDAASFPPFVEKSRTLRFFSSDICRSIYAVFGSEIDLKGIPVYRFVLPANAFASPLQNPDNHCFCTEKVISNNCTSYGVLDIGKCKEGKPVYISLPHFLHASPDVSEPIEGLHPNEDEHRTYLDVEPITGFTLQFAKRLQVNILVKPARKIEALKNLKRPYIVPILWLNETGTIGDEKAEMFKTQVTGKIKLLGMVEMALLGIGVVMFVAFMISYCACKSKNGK
T2 sequence (P19096 whole entry): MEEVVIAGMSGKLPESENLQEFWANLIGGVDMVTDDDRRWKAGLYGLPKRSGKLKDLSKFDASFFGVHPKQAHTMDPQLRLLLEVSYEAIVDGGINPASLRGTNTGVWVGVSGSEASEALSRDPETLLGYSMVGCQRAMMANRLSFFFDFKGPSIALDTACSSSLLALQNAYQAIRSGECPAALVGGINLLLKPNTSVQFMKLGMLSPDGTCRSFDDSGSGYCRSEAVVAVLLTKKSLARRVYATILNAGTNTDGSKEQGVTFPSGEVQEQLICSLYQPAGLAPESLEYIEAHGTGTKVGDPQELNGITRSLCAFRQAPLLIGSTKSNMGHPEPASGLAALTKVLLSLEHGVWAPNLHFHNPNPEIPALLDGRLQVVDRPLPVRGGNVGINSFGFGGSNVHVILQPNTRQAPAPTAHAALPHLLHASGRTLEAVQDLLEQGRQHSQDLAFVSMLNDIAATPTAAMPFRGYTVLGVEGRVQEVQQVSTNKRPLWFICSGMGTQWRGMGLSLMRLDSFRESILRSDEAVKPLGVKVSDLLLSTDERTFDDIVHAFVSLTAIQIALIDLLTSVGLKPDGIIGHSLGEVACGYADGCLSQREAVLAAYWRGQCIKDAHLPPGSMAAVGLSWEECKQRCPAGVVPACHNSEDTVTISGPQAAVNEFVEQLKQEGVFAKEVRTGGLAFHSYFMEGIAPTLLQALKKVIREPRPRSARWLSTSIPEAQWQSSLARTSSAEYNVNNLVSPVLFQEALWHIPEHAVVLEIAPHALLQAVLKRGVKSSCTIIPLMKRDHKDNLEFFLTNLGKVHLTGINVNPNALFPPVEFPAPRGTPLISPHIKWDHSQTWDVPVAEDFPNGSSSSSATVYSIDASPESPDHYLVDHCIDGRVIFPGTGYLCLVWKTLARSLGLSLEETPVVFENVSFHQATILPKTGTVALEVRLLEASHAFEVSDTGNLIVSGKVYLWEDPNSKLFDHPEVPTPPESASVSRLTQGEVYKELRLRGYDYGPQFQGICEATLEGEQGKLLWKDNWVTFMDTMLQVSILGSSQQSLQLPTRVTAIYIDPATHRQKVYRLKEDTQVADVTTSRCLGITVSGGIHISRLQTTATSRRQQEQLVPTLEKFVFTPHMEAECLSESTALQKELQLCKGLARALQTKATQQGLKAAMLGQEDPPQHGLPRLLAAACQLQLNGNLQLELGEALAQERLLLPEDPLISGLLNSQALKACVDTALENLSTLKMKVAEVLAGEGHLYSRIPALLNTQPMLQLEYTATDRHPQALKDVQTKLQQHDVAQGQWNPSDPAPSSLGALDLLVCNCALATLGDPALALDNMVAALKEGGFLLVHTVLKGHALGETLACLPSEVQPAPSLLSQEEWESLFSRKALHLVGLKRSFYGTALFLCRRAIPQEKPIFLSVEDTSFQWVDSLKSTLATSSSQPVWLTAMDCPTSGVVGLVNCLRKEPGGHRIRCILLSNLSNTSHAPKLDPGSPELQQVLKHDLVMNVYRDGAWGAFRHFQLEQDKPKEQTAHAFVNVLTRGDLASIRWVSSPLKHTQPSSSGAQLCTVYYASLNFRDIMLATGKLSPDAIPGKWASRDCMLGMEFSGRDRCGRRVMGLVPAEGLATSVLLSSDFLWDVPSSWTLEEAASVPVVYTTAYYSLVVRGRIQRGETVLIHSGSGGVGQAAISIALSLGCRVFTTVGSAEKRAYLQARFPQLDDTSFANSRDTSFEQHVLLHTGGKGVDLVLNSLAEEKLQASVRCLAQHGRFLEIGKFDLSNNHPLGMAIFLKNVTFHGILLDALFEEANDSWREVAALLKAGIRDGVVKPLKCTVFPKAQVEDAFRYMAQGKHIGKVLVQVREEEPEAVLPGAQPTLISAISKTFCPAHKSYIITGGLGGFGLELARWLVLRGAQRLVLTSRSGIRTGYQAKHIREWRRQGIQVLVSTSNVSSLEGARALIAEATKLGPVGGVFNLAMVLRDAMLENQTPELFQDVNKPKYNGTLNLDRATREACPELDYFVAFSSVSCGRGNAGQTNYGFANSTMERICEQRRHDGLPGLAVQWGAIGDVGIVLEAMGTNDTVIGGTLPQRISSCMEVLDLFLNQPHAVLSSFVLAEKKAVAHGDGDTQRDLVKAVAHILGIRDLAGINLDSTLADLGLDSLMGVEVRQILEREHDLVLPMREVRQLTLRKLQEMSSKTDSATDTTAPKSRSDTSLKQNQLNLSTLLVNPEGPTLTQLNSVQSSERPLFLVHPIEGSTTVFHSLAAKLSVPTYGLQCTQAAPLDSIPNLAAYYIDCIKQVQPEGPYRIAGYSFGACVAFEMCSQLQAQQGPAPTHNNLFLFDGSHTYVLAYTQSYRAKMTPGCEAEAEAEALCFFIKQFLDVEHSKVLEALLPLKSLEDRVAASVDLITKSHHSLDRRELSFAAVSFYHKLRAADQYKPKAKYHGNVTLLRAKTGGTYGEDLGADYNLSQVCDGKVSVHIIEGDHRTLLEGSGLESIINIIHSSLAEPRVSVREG

Binder | binding result [1] | binding result [2]
B1 | binds | –
B2 | – | binds
